Assay results taken from article PMC4604771, “A novel eurythermic and thermostale lipase LipM from Pseudomonas moraviensis M9 and its application in the partial hydrolysis of algal oil” (BMC Biotechnology, 2015).

Substrate: CCCCCCCC(=O)Oc1ccc([N+](=O)[O-])cc1
Experiment: p-nitrophenol release, Lineweaver-Burk plot
Assay type: biochemical, Pseudomonas moraviensis
Conditions: 50 mM Tris-HCl, pH 8.0, 65 °C, 0.01-2 mM substrate

B1: LipM (Pseudomonas moraviensis) (protein)
chain: MGLFDYRNADGKALYSDAIALTLYAYAPTGEPLPATAWAPVAATALGYQGKVGPQGTFFGEQDGYTSAEAEVLGKYDAAGKLIGIGIAFRGTGGLGYSDTYGDMKNNLLAAFGPSDYASHYAKNAFDHLLKAVAAFAIANGIAAQDVLISGHSLGGLGVNSVAELSASHWGGFFKDANYIAFASPTQSSTGSNVLNIGYENDPVFRALDGTTFSSGSLGKHDGAHDSTTDNIVNFTDNYASTAQNLVPFSIVNPLNWSAHSSLGYADGLNRVIDSQFYALTHKDSTIIVSNLEEASRGKTWVEDLGRSGEPHVGSTLIIGTHSSDWLKGGSGNDFLEGLGGDDRFRDDGGFNILLGGQGHNTFELQKPLQNFSFANDGDGTLYVRDAYGGISLTRDIGALVSKEAGSWWGSKEITWGVTAKGLSNGSELTQYNHSLSGDGYGNALHASADGDWLFGLGGNDSLISDKGHVTFVGGAGNDVMTALGGNNTFLFSGAFGFDAVNGYQGNDKLVFMGVEGAGQGYDYKQHASQSGDDTVLKIGDYAVTLIGVGVANLSDSSIMFA
notes: pET-22b(+) NdeI/XhoI, His tag kept (C-terminal by vector)
Km: 360 µM | kcat: 35.7 s⁻¹
